Experimental data reported in paper doi:10.1101/208272 (bioRxiv, 2017).
Blank lines part the entries; values can stand above or below the molecule they belong to.

Key:
[1] = target: Cdh23-EC1+2 (mouse cadherin-23 extracellular repeats EC1 and EC2), wild type (mouse) (UniProt Q99PF4); assay: dynamic light scattering
[2] = target: Cdh23-EC1+2 (mouse cadherin-23 extracellular repeats EC1 and EC2), wild type (mouse) (UniProt Q99PF4); assay: AUC
[3] = target: Cdh23-EC1+2 (mouse cadherin-23 extracellular repeats EC1 and EC2), wild type (mouse) (UniProt Q99PF4); assay: SEC
[4] = target: Cdh23-EC1+2 (mouse cadherin-23 extracellular repeats EC1 and EC2), wild type (mouse) (UniProt Q99PF4); assay: single-molecule force spectroscopy
[5] = target: Cdh23-EC1+2 (mouse cadherin-23 extracellular repeats EC1 and EC2), wild type (mouse) (UniProt Q99PF4); assay: FRET or BRET
[6] = target: Cdh23-EC1+2 V3C, labelled with cy3 or cy5 at the N-terminus (mouse); assay: FRET or BRET
[7] = target: the molecule itself; assay: AUC

stoichiometry N [1]: 2
Kd [2]: 18 µM
stoichiometry N [2]: 2
stoichiometry N [3]: 2
percent unbinding events [4]: 8 to 10%
probability of events [4]: 6%
τ0 (intrinsic lifetime at zero force), high-force distribution [4]: 1220 s
τ0 (intrinsic lifetime at zero force), low-force distribution [4]: 1.86 s
Molecule: Cdh23-EC1+2 (mouse cadherin-23 extracellular repeats EC1 and EC2), wild type (from UniProt Q99PF4 24-228) (domain or fragment)

FRET efficiency [5]: 0.64
FRET efficiency [6]: 0.15
Molecule: Cdh23-EC1+2 V3C, labelled with cy3 or cy5 at the N-terminus (domain or fragment)

B1: Cdh23-EC1 (mouse cadherin-23 extracellular repeat EC1) (domain or fragment, UniProt Q99PF4 24-124, looked up)
chain: QVNRLPFFTNHFFDTYLLISEDTPVGSSVTQLLARDMDNDPLVFGVSGEEASRFFAVEPDTGVVWLRQPLDRETKSEFTVEFSVSDHQGVITRKVNIQVGD
modifications: C-terminus covalently joined by sortase A to GGGGC on PEG-coated coverslips and AFM cantilevers in force spectroscopy
stoichiometry N [7]: 2
